From PMC3902948

B1: Prp43 (Saccharomyces cerevisiae S288C) (protein)
chain: MGSKRRFSSEHPDPVETSIPEQAAEIAEELSKQHPLPSEEPLVHHDAGEFKGLQRHHTSAEEAQKLEDGKINPFTGREFTPKYVDILKIRRELPVHAQRDEFLKLYQNNQIMVFVGETGSGKTTQIPQFVLFDEMPHLENTQVACTQPRRVAAMSVAQRVAEEMDVKLGEEVGYSIRFENKTSNKTILKYMTDGMLLREAMEDHDLSRYSCIILDEAHERTLATDILMGLLKQVVKRRPDLKIIIMSATLDAEKFQRYFNDAPLLAVPGRTYPVELYYTPEFQRDYLDSAIRTVLQIHATEEAGDILLFLTGEDEIEDAVRKISLEGDQLVREEGCGPLSVYPLYGSLPPHQQQRIFEPAPESHNGRPGRKVVISTNIAETSLTIDGIVYVVDPGFSKQKVYNPRIRVESLLVSPISKASAQQRAGRAGRTRPGKCFRLYTEEAFQKELIEQSYPEILRSNLSSTVLELKKLGIDDLVHFDFMDPPAPETMMRALEELNYLACLDDEGNLTPLGRLASQFPLDPMLAVMLIGSFEFQCSQEILTIVAMLSVPNVFIRPTKDKKRADDAKNIFAHPDGDHITLLNVYHAFKSDEAYEYGIHKWCRDHYLNYRSLSAADNIRSQLERLMNRYNLELNTTDYESPKYFDNIRKALASGFFMQVAKKRSGAKGYITVKDNQDVLIHPSTVLGHDAEWVIYNEFVLTSKNYIRTVTSVRPEWLIEIAPAYYDLSNFQKGDVKLSLERIKEKVDRLNELKQGKNKKKSKHSKK
B2: Prp43/Ntr1(1–120) (Saccharomyces cerevisiae S288C) (protein)
chain: B1 chain
B3: Prp43/Ntr1(51–110) (Saccharomyces cerevisiae S288C) (protein)
chain: B1 chain

Substrate: Nc1ncnc2c1ncn2[C@@H]1O[C@H](COP(=O)(O)OP(=O)(O)OP(=O)(O)O)[C@@H](O)[C@H]1O
Assay: purified protein
Settings: no RNA, 100 mM NaCl, 10 mM Tris pH 7.5, 2 mM MgCl2

Row | Protein | Km [µM] | Vmax [µM/min]
1 | B1 | 11.07 ± 2.07 | 2.43
2 | B2 | 16.37 ± 1.81 | 11.2
3 | B3 | 13.42 ± 1.93 | 9.54
